Assay results taken from the supplement of paper PMC12042874.
± gives the uncertainty stated by the source.

Experiment: amyloid nucleation score (Sup35N fusion, yeast selection) (log enrichment); library NNK2; higher = more nucleation; inactive = no reads after selection
Summary of the method: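 The nucleation score equals the log enrichment of output over input reads from DiMSum, centred on the mode score of non-aggregating sequences. It was computed only for sequences with 100 or more input reads. The reads came from Illumina sequencing of plasmid inserts from psi-negative yeast expressing Sup35N fused to peptides of 20 random codons, induced with 100 μM copper sulfate for 24 hours and grown 7 days at 30°C without adenine and uracil.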

Substance | amyloid nucleation score
DKSNLARFTSSKWS | 0.426 ± 0.35
YVDWAG | -1.56 ± 0.62
STSRFTMQQRRKLYKSFCWR | -0.665 ± 1.1
RNSMGTFSRWYPIMY | -0.54 ± 0.48
FYENN | -0.729 ± 0.78
INWCSDMHNCVCLTIGQWLV | 3.36 ± 0.16
CYFSDPVHLENPSINSISFW | inactive
LLEYCCYFYRN | 3.57 ± 0.12
RLKGGFVEGPSGRVTCVRIT | 0.132 ± 0.38
WRYGNDYTFLIMDGC | -0.511 ± 0.37
VRIYTHWTRSYRPKFRSTWT | 0.641 ± 0.74
FYAHYASHL | inactive
NILWSNLGRMCRQLFAVFWS | -0.738 ± 0.62
DTVISCLGVG | -0.087 ± 1
RSKLNIDV | 1.95 ± 0.14
DIFITTSSFTLRCAYIIKGI | -1.44 ± 0.78
TYKEYCGE | -0.693 ± 0.78
LNLSYIKAVTSRFAADYVL | 0.523 ± 0.18
MTRVSQFVVVP | 1.69 ± 0.13
TSLSVVSGFLAFSGSPHSGT | 4.39 ± 0.05
FSPHHEPTSRG | 0.426 ± 0.45
CHCMLIG | 3.46 ± 0.066

Substance | amyloid nucleation score
SWVSFDKSLHMGVVYDRLRR | inactive
YHFFKCRPCSFSWLITGMVK | -0.287 ± 0.63
CKSQLHLRVRTRKNVCVVIS | 0.13 ± 0.62
LKNVCFCIWRISWNKISQKI | inactive
LRMSVVQLSVRESLLDNHDY | 1.78 ± 0.25
TMIRYVERMVDNLFRNCRLP | 0.827 ± 0.2
SEGRATARQLLVKDTLFV | 4.06 ± 0.088
LVSYNITFEYHNGKGCGEYG | 3.63 ± 0.12
VSFWFVFFWMISTRSEMMDR | -1.08 ± 0.53
LSLYFFDL | 1.06 ± 0.36
CGPPVIWVLLCKLGMFWTVS | -0.555 ± 0.55
YHCCFRSKAGFQESQDITIR | -0.18 ± 0.24
EMWSISIKISGR | 0.763 ± 0.57
SSCPYYHGYNVRVMSCSHVI | 0.091 ± 0.4
FVANSRLLALRLVIGTMLAG | 0.214 ± 0.77
MFRVARFSKAYDCTHFVING | 0.546 ± 0.8
IIHDEVSLPWI | inactive
IREGLFRVTIDYSSMLCSGR | 3.01 ± 0.12
FRSHCWL | 0.285 ± 0.41
GAVHGMT | 0.538 ± 0.55
LLRDSVY | -0.817 ± 1.1
IVCLYKKCLLCGLHLVVSIV | -0.608 ± 0.53

Substance | amyloid nucleation score
SFNNVKLDGRSF | -0.59 ± 0.64
SKIVCDMFLGHEDLPCTRLF | 0.057 ± 1.1
SYWIADTNRSGNRRLSCGRC | 0.266 ± 1
NMVHNDRSRKVKLSWCATFK | 7.609 ± 0.058
SVKNR | 3.51 ± 0.049
NGDLIRDRECRANMRFIMRV | -1.21 ± 0.45
YCGFQYLRWGVTVVNS | 0.386 ± 0.19
KRNRQMSFRMVSLTRNTSPH | 0.792 ± 0.53
FGMFM | -0.228 ± 0.32
FGLYRVRGRSEYRVDHTGWG | 0.534 ± 0.51
FYMMFMNLCFIYYCVLMEGY | inactive
CSSTAVFTRLIKADIWVRSA | -1.35 ± 0.36
ISASGVDSDEGVRPGQLMMC | 10.4 ± 0.065
LWAFHLNFVLSAVCLRRKNL | inactive
VAFKSTLQVLVANKFG | -0.627 ± 1
DFPQCKNTETLL | 0.279 ± 0.4
KVFSNIVMLLSVRLCCLMKI | -1.58 ± 1.1
LLPSGIIH | -0.815 ± 0.5
NIGSVKN | 0.098 ± 0.38
SIILLDYCPRRNSSTIALRH | -0.118 ± 0.43
LLRSLNLVG | 0.288 ± 0.65
GMMLPVFMIFIRRACINYSL | inactive

Substance | amyloid nucleation score
LSGFKYWLRWL | inactive
LRFPRWSPADGDSILHTTSQ | 0.673 ± 0.66
RIEVLTLCGGEAGSLVMGIV | 1.16 ± 0.48
FKPLGTTEGIYTPVMYSYRG | -0.6 ± 0.27
GGFRWSIQEHWYCTNAYSTD | 0.734 ± 0.81
LGYSLAACNQETGNDRYMAR | 0.121 ± 0.34
VGKRIVHIFCVEFGSLMGC | inactive
MAFCCLSVRYTIGRVVAFMY | -0.4 ± 0.64
TCPCRYLDVNIDAMFVTMDI | 7.789 ± 0.056
YISMKWEVAHNYWWILSGIP | 0.444 ± 0.25
STTQEF | 0.086 ± 0.32
MCGKRGLRGWLKSDDVIIWV | 5.19 ± 0.074
HYSRI | 0.647 ± 0.58
VDIWVWVG | 0.456 ± 0.6
YFPIASALNCSLGCARCCES | 0.669 ± 0.74
LRNRMAERDLYLYAICSAGL | 0.331 ± 0.55
RIRRVSERMSVFRTLHRTMW | 5.01 ± 0.079
SKVSKGLHST | inactive
HNYAVS | -0.711 ± 0.54
SSWYHFDFGYCECGSNDGFV | 0.102 ± 0.79
LSACIALASGYVGISGW | inactive
